Measurements reported in the supplement of paper PMC7877785.
± gives the uncertainty stated by the source.

Test: self-splicing fitness, log relative to wild type (ln ratio); higher = more splicing; Tetrahymena group I intron in knt gene, E. coli kanamycin selection, DiMSum; sequences stand for … in CUCUCU…GGAGGGAAAAGUUAUCAGGCAUGCACCUGGUAGCUAGUCUUUAAACCAAUAGAUUGCAUCGGUUUAAAAGGCAAGACCGUCAAAUUGCGGGAAAGGGGUCAACAGCCGUUCAGUACCAAGUCUCAGGGGAAACUUUGAGAUGGCCUUGCAAAGGGUAUGGUAAUAAGCUGACGGACAUGGUCCUAACCACGCAGCCAAGUCCUAAGUCAACAGAUCUUCUGUUGAUAUGGAUGCAGUUCACAGACUAAAUGUCGGUCGGGGAAGAUGUAUUCUUCUCAUAAGAUAUAGUCGGACCUCUCCUUAAUGGGAGCUAGCGGAUGAAGUGAUGCAACACUGGAGCCGCUGGGAACUAAUUUGUAUGCGAAAGUAUAUUGAUUAGUUUUGGAGUACUCGUGGUCG
Method in brief: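 Library with all eight P1ex-region intron nucleotides randomised, intron inside the knt kanamycin-resistance gene on pET-22b(+), in E. coli BL21(DE3). Cells grew overnight at 37°C or 30°C on LB agar with or without 25 μg/mL kanamycin (plus 100 μg/mL carbenicillin, 50 μM IPTG, 0.2% rhamnose), in six replicate transformations. Pooled colonies were amplicon-sequenced on Illumina HiSeq 2500. DiMSum fitness is the error-weighted combination of wild-type-normalised replicate fold changes, kanamycin versus none.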

Row | Sequence | self-splicing fitness (ln) (30 °C) | self-splicing fitness (ln) (37 °C)
1 | UGGGAGCAAUAUUACGCUUA | -2.55 ± 0.11 | -0.767 ± 0.098
2 | UGGGAGCAAUAUUACGCUUG | -1.62 ± 0.23 | 0.249 ± 0.23
3 | UGGGAGCAAUAUUACGGCAG | -3.28 ± 0.21 | -1.34 ± 0.17
4 | UGGGAGCAAUAUUACGGCCU | -2.18 ± 0.16 | -1.9 ± 0.2
5 | UGGGAGCAAUAUUACGGCGC | -1.12 ± 0.38 | –
6 | UGGGAGCAAUAUUACGGGAA | -2.98 ± 0.3 | -1.87 ± 0.24
7 | UGGGAGCAAUAUUACGGGUA | -2.68 ± 0.32 | -2.33 ± 0.37
8 | UGGGAGCAAUAUUACGUAUG | -3.01 ± 0.14 | -1.84 ± 0.22
9 | UGGGAGCAAUAUUACGUGCG | -1.56 ± 0.11 | -0.551 ± 0.14
10 | UGGGAGCAAUAUUACGUUAA | -2.76 ± 0.33 | –
11 | UGGGAGCAAUAUUACGUUCA | -0.406 ± 0.091 | -0.266 ± 0.12
12 | UGGUAGCAAUAUUACGACAU | -1.39 ± 0.015 | -0.583 ± 0.034
13 | UGGUAGCAAUAUUACGACUC | -0.656 ± 0.23 | -0.807 ± 0.35
14 | UGGUAGCAAUAUUACGAGGU | -2.63 ± 0.45 | -2.6 ± 0.35
15 | UGGUAGCAAUAUUACGAUCG | 0.32 ± 0.085 | 0.623 ± 0.11
16 | UGGUAGCAAUAUUACGAUGA | -0.831 ± 0.13 | -0.597 ± 0.19
17 | UGGUAGCAAUAUUACGAUUA | -0.395 ± 0.055 | 0.0463 ± 0.066
18 | UGGUAGCAAUAUUACGCGGU | – | -2.58 ± 0.45
19 | UGGUAGCAAUAUUACGCUCG | 0.322 ± 0.17 | 0.532 ± 0.25
20 | UGGUAGCAAUAUUACGCUUG | -0.988 ± 0.092 | -0.402 ± 0.11
21 | UGGUAGCAAUAUUACGGCUA | -1.37 ± 0.2 | -0.75 ± 0.19
22 | UGGUAGCAAUAUUACGGGAU | -3.14 ± 0.36 | -2.32 ± 0.28
23 | UGGUAGCAAUAUUACGUAGC | -1.3 ± 0.2 | -0.833 ± 0.27
24 | UGGUAGCAAUAUUACGUCUU | -0.526 ± 0.12 | 0.37 ± 0.13
25 | UGGUAGCAAUAUUACGUGCC | -1.42 ± 0.21 | -2.45 ± 0.39
26 | UGGUAGCAAUAUUACGUUAC | -2.42 ± 0.37 | –

Row | Sequence | self-splicing fitness (ln) (30 °C) | self-splicing fitness (ln) (37 °C)
27 | UGGUAGCAAUAUUACGUUAG | -1.9 ± 0.067 | -0.599 ± 0.072
28 | UGGUAGCAAUAUUACGUUUU | -3.96 ± 0.24 | -2.32 ± 0.16
29 | UGUAAGCAAUAUUACGAAGC | -3.44 ± 0.28 | -2.61 ± 0.34
30 | UGUAAGCAAUAUUACGACUG | -0.779 ± 0.11 | -1.14 ± 0.14
31 | UGUAAGCAAUAUUACGAGAG | -3.81 ± 0.23 | -1.87 ± 0.25
32 | UGUAAGCAAUAUUACGAGCC | -1.57 ± 0.35 | -0.838 ± 0.43
33 | UGUAAGCAAUAUUACGCAAG | -2.85 ± 0.39 | -2.66 ± 0.44
34 | UGUAAGCAAUAUUACGCCAU | -3.9 ± 0.27 | -3.35 ± 0.3
35 | UGUAAGCAAUAUUACGGAAU | – | -2.49 ± 0.26
36 | UGUAAGCAAUAUUACGGACG | -0.142 ± 0.11 | 0.762 ± 0.14
37 | UGUAAGCAAUAUUACGUACC | -1.07 ± 0.34 | -0.216 ± 0.26
38 | UGUAAGCAAUAUUACGUAGA | -0.696 ± 0.12 | -0.209 ± 0.16
39 | UGUAAGCAAUAUUACGUUGA | -2.71 ± 0.18 | -1.28 ± 0.16
40 | UGUAAGCAAUAUUACGUUGU | -3.79 ± 0.21 | -2.98 ± 0.29
41 | UGUCAGCAAUAUUACGACUA | -0.425 ± 0.073 | 0.686 ± 0.11
42 | UGUCAGCAAUAUUACGAGAC | – | -2.91 ± 0.29
43 | UGUCAGCAAUAUUACGAUAU | -1.6 ± 0.13 | -0.448 ± 0.13
44 | UGUCAGCAAUAUUACGAUCU | -0.397 ± 0.091 | 0.0205 ± 0.1
45 | UGUCAGCAAUAUUACGCCCU | -0.458 ± 0.13 | -0.00845 ± 0.19
46 | UGUCAGCAAUAUUACGCCUA | -0.234 ± 0.12 | 0.77 ± 0.16
47 | UGUCAGCAAUAUUACGCCUC | -2.62 ± 0.42 | –
48 | UGUCAGCAAUAUUACGCGCC | -0.7 ± 0.18 | -0.523 ± 0.23
49 | UGUCAGCAAUAUUACGCGGG | -3.8 ± 0.3 | -1.73 ± 0.26
50 | UGUCAGCAAUAUUACGCUUC | – | -1.76 ± 0.21
51 | UGUCAGCAAUAUUACGGAUA | -1.37 ± 0.1 | -0.339 ± 0.12
